Laboratory results reported in patent US20050118674A1, “Engineering of Controlled Deamidation Rates in Peptides, Proteins, and Similar Structures” (priority 2003, published 2005).

Assay: First-order nonenzymatic deamidation of pentapeptides in Tris buffer
Assay type: physicochemical
Settings: 0.15 M Tris HCl; for First-Order Deamidation Halftimes of GlyXxxAsnYyyGly: pH 7.4, 37.0° C., Asn pentapeptides; for First-Order Deamidation Halftimes of GlyXxxGlnYyyGly: pH 7.4, 37.0 ° C., Gln pentapeptides, 52 values measured, rest derived from surface fitting
Experimental: One of the discoveries made was that the sequence dependence of deamidation is much richer and covers a wider range than previously thought. In 37° C., pH 7.4, 0.15 M Tris buffer, the combination of XxxAsnYyy and XxxGlnYyy sequences where Xxx and Yyy are any of the naturally occuring amino acids covers a range from less than 1 day to over 15,000 days with the entire range in between available.
It is based on pentapeptide rates measure in 37° C., pH 7.4, 0.15 M Tris buffer. The applicability of a pentapeptide model to sequence dependence was verified in a separate set of experiments. All values listed in this table are experimental except for the four values in boxes, which were estimated from the rest of the data.
It is also based on pentapeptide rates measure in 37° C., pH 7.4, 0.15 M Tris buffer. In this case, the 52 values shown in bold were measured, and the rest of the values were derived from surface fitting.
Deamidation rates are affected by a wide variety of parameters, including, pH, Temperature, Ionic Strength, and Buffer Ions. These rates are measured under pH and Temperature conditions that are applicable to biological systems. The buffer type and concentration were chosen to minimize ion affects to the extent possible given the experimental limitations. Modification of these conditions will change the rates in Tables 1 and 2. As long as the conditions are not taken to extremes (i.e. high temperature, or strongly acidic or basic conditions) the qualitative sequence dependence should remain the same and the rates reported here can be used with necessary adjustments.

Row | Substance | First-Order Deamidation Halftimes of GlyXxxAsnYyyGly [days] | First-Order Deamidation Halftimes of GlyXxxGlnYyyGly [days]
1 | GlyArgAsnLysGly (GRNKG; printed: GlyArgAsnLysGly) | 49.6 | –
2 | GlyArgAsnMetGly (GRNMG; printed: GlyArgAsnMetGly) | 74.4 | –
3 | GlyArgAsnPheGly (GRNFG; printed: GlyArgAsnPheGly) | 68.3 | –
4 | GlyArgAsnProGly (GRNPG; printed: GlyArgAsnProGly) | 5790 | –
5 | GlyArgAsnSerGly (GRNSG; printed: GlyArgAsnSerGly) | 14.3 | –
6 | GlyArgAsnThrGly (GRNTG; printed: GlyArgAsnThrGly) | 50.7 | –
7 | GlyArgAsnTrpGly (GRNWG; printed: GlyArgAsnTrpGly) | 127 | –
8 | GlyArgAsnTyrGly (GRNYG; printed: GlyArgAsnTyrGly) | 90.0 | –
9 | GlyArgAsnValGly (GRNVG; printed: GlyArgAsnValGly) | 247 | –
10 | GlyArgGlnAlaGly (GRQAG; printed: GlyArgGlnAlaGly) | – | 4400
11 | GlyArgGlnArgGly (GRQRG; printed: GlyArgGlnArgGly) | – | 2300
12 | GlyArgGlnAspGly (GRQDG; printed: GlyArgGlnAspGly) | – | 5900
13 | GlyArgGlnCysGly (GRQCG; printed: GlyArgGlnCysGly) | – | 1000
14 | GlyArgGlnGluGly (GRQEG; printed: GlyArgGlnGluGly) | – | 5400
15 | GlyArgGlnGlyGly (GRQGG; printed: GlyArgGlnGlyGly) | – | 660
16 | GlyArgGlnHisGly (GRQHG; printed: GlyArgGlnHisGly) | – | 4900
17 | GlyArgGlnIleGly (GRQIG; printed: GlyArgGlnIleGly) | – | 5500
18 | GlyArgGlnLeuGly (GRQLG; printed: GlyArgGlnLeuGly) | – | 5400
19 | GlyArgGlnLysGly (GRQKG; printed: GlyArgGlnLysGly) | – | 4000
20 | GlyArgGlnMetGly (GRQMG; printed: GlyArgGlnMetGly) | – | 4100
21 | GlyArgGlnPheGly (GRQFG; printed: GlyArgGlnPheGly) | – | 7100
22 | GlyArgGlnProGly (GRQPG; printed: GlyArgGlnProGly) | – | 8100
23 | GlyArgGlnSerGly (GRQSG; printed: GlyArgGlnSerGly) | – | 4300
24 | GlyArgGlnThrGly (GRQTG; printed: GlyArgGlnThrGly) | – | 4200
25 | GlyArgGlnTrpGly (GRQWG; printed: GlyArgGlnTrpGly) | – | 11000

Row | Substance | First-Order Deamidation Halftimes of GlyXxxAsnYyyGly [days] | First-Order Deamidation Halftimes of GlyXxxGlnYyyGly [days]
26 | GlyArgGlnTyrGly (GRQYG; printed: GlyArgGlnTyrGly) | – | 9200
27 | GlyArgGlnValGly (GRQVG; printed: GlyArgGlnValGly) | – | 5800
28 | GlyAspAsnAlaGly (GDNAG; printed: GlyAspAsnAlaGly) | 24.0 | –
29 | GlyAspAsnAmCysGly | 45.8 | –
30 | GlyAspAsnArgGly (GDNRG; printed: GlyAspAsnArgGly) | 87.2 | –
31 | GlyAspAsnAspGly (GDNDG; printed: GlyAspAsnAspGly) | 29.4 | –
32 | GlyAspAsnCysGly (GDNCG; printed: GlyAspAsnCysGly) | 54.1 | –
33 | GlyAspAsnGluGly (GDNEG; printed: GlyAspAsnGluGly) | 46.8 | –
34 | GlyAspAsnGlyGly (GDNGG; printed: GlyAspAsnGlyGly) | 1.53 | –
35 | GlyAspAsnHisGly (GDNHG; printed: GlyAspAsnHisGly) | 9.7 | –
36 | GlyAspAsnIleGly (GDNIG; printed: GlyAspAsnIleGly) | 298 | –
37 | GlyAspAsnLeuGly (GDNLG; printed: GlyAspAsnLeuGly) | 111 | –
38 | GlyAspAsnLysGly (GDNKG; printed: GlyAspAsnLysGly) | 75.9 | –
39 | GlyAspAsnMetGly (GDNMG; printed: GlyAspAsnMetGly) | 57.3 | –
40 | GlyAspAsnPheGly (GDNFG; printed: GlyAspAsnPheGly) | 70.1 | –
41 | GlyAspAsnProGly (GDNPG; printed: GlyAspAsnProGly) | 11800 | –
42 | GlyAspAsnSerGly (GDNSG; printed: GlyAspAsnSerGly) | 17.0 | –
43 | GlyAspAsnThrGly (GDNTG; printed: GlyAspAsnThrGly) | 52.4 | –
44 | GlyAspAsnTrpGly (GDNWG; printed: GlyAspAsnTrpGly) | 80.3 | –
45 | GlyAspAsnTyrGly (GDNYG; printed: GlyAspAsnTyrGly) | 70.4 | –
46 | GlyAspAsnValGly (GDNVG; printed: GlyAspAsnValGly) | 241 | –
47 | GlyAspGlnAlaGly (GDQAG; printed: GlyAspGlnAlaGly) | – | 7100
48 | GlyAspGlnArgGly (GDQRG; printed: GlyAspGlnArgGly) | – | 5200
49 | GlyAspGlnAspGly (GDQDG; printed: GlyAspGlnAspGly) | – | 8400
50 | GlyAspGlnCysGly (GDQCG; printed: GlyAspGlnCysGly) | – | 2100

Row | Substance | First-Order Deamidation Halftimes of GlyXxxAsnYyyGly [days] | First-Order Deamidation Halftimes of GlyXxxGlnYyyGly [days]
51 | GlyAspGlnGluGly (GDQEG; printed: GlyAspGlnGluGly) | – | 8200
52 | GlyAspGlnGlyGly (GDQGG; printed: GlyAspGlnGlyGly) | – | 800
53 | GlyAspGlnHisGly (GDQHG; printed: GlyAspGlnHisGly) | – | 2500
54 | GlyAspGlnIleGly (GDQIG; printed: GlyAspGlnIleGly) | – | 6400
55 | GlyAspGlnLeuGly (GDQLG; printed: GlyAspGlnLeuGly) | – | 6200
56 | GlyAspGlnLysGly (GDQKG; printed: GlyAspGlnLysGly) | – | 4600
57 | GlyAspGlnMetGly (GDQMG; printed: GlyAspGlnMetGly) | – | 5200
58 | GlyAspGlnPheGly (GDQFG; printed: GlyAspGlnPheGly) | – | 8500
59 | GlyAspGlnProGly (GDQPG; printed: GlyAspGlnProGly) | – | 11000
60 | GlyAspGlnSerGly (GDQSG; printed: GlyAspGlnSerGly) | – | 6200
61 | GlyAspGlnThrGly (GDQTG; printed: GlyAspGlnThrGly) | – | 5400
62 | GlyAspGlnTrpGly (GDQWG; printed: GlyAspGlnTrpGly) | – | 17000
63 | GlyAspGlnTyrGly (GDQYG; printed: GlyAspGlnTyrGly) | – | 13000
64 | GlyAspGlnValGly (GDQVG; printed: GlyAspGlnValGly) | – | 6600
65 | GlyCysAsnAlaGly (GCNAG; printed: GlyCysAsnAlaGly) | 26.4 | –
66 | GlyCysAsnArgGly (GCNRG; printed: GlyCysAsnArgGly) | 83.1 | –
67 | GlyCysAsnAspGly (GCNDG; printed: GlyCysAsnAspGly) | 30.6 | –
68 | GlyCysAsnCysGly (GCNCG; printed: GlyCysAsnCysGly) | 46.0 | –
69 | GlyCysAsnGluGly (GCNEG; printed: GlyCysAsnGluGly) | 48.3 | –
70 | GlyCysAsnGlyGly (GCNGG; printed: GlyCysAsnGlyGly) | 1.14 | –
71 | GlyCysAsnHisGly (GCNHG; printed: GlyCysAsnHisGly) | 10.8 | –
72 | GlyCysAsnIleGly (GCNIG; printed: GlyCysAsnIleGly) | 304 | –
73 | GlyCysAsnLeuGly (GCNLG; printed: GlyCysAsnLeuGly) | 119 | –
74 | GlyCysAsnLysGly (GCNKG; printed: GlyCysAsnLysGly) | 46.6 | –
